Data as given in publication PMC2408616, “Modular Organization and Combinatorial Energetics of Proline–Tyrosine Nuclear Localization Signals” (PLoS Biology, 2008).
Where no end group is shown, it is not given here. MBP = not defined here

T1: Kap104p (yeast (S. cerevisiae), UniProt P38217 1-918)
T1 construct: Kap104p, yeast homolog of Kapβ2; gene a gift from J. Aitchison, subcloned into pGEX-Tev; also called yeast Karyopherin β2 homolog; source: E. coli Rosetta(DE3)pLysS, purified (glutathione sepharose, TEV cleavage, anion exchange, gel filtration)
T1 sequence (looked up): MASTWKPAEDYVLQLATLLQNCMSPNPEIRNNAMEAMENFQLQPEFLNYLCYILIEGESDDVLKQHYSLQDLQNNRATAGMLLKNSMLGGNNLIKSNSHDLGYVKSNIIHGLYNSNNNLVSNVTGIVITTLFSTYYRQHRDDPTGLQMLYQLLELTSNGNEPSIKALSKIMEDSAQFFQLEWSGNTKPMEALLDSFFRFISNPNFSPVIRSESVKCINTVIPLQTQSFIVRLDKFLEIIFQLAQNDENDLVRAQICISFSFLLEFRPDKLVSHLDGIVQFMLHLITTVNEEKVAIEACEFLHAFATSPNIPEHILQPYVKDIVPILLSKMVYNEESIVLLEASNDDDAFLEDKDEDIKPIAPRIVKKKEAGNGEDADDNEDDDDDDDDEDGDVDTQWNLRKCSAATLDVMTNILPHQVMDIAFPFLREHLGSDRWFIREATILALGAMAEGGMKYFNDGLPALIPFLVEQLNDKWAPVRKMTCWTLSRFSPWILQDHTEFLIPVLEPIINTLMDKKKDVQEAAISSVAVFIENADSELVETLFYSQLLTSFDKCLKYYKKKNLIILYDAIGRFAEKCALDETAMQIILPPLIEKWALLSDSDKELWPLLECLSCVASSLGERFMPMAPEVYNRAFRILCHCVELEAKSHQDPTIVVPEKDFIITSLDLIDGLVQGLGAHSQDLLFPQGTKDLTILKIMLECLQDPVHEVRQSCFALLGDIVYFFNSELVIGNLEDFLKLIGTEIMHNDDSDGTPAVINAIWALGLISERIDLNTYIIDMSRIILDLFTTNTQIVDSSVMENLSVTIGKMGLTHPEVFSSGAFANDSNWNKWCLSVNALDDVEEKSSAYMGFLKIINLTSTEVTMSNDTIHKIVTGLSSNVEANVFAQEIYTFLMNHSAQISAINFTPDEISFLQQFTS

B1: MBP–Hrp1p NLS (domain or fragment, S. cerevisiae, UniProt Q99383 494-534, looked up)
chain: RDRNDRDRDYNHRSGGNHRRNGRGGRGGYNRRNNGYHPYNR
notes: Hrp1p NLS, residues 494-534; also called Hrp1p NLS wild type; source: E. coli BL21(DE3), purified (amylose resin, cation exchange)
B2: MBP–Hrp1p NLS Y532F (domain or fragment, S. cerevisiae, UniProt Q99383 494-534, looked up)
chain: RDRNDRDRDYNHRSGGNHRRNGRGGRGGYNRRNNGYHPFNR
notes: Hrp1p NLS, residues 494-534; source: E. coli BL21(DE3), purified (amylose resin, cation exchange)
B3: MBP–Hrp1p NLS Y532M (domain or fragment, S. cerevisiae, UniProt Q99383 494-534, looked up)
chain: RDRNDRDRDYNHRSGGNHRRNGRGGRGGYNRRNNGYHPMNR
notes: as for B2
B4: MBP–Hrp1p NLS 531PY532/AA (domain or fragment, S. cerevisiae, UniProt Q99383 494-534, looked up)
chain: {MBP}-RDRNDRDRDYNHRSGGNHRRNGRGGRGGYNRRNNGYHAANR
modifications: reading uncertain
notes: as for B2
B5: MBP–Hrp1p NLS Y532H (domain or fragment, S. cerevisiae, UniProt Q99383 494-534, looked up)
chain: RDRNDRDRDYNHRSGGNHRRNGRGGRGGYNRRNNGYHPHNR
notes: as for B2
B6: MBP–Nab2p NLS (domain or fragment, S. cerevisiae, UniProt P32505 201-251, looked up)
chain: DNSQRFTQRGGGAVGKNRRGGRGGNRGGRNNNSTRFNPLAKALGMAGESNM
notes: Nab2p NLS, residues 201-251 (methods; the results say 201-250); also called Nab2p NLS wild type; source: E. coli BL21(DE3), purified (amylose resin, cation exchange)
B7: MBP–Nab2p NLS L239H (domain or fragment, S. cerevisiae, UniProt P32505 201-251, looked up)
chain: DNSQRFTQRGGGAVGKNRRGGRGGNRGGRNNNSTRFNPHAKALGMAGESNM
notes: Nab2p NLS, residues 201-251; also called L239 to H; source: E. coli BL21(DE3), purified (amylose resin, cation exchange)
B8: MBP–Nab2p NLS R229A (domain or fragment, S. cerevisiae, UniProt P32505 201-251, looked up)
chain: DNSQRFTQRGGGAVGKNRRGGRGGNRGGANNNSTRFNPLAKALGMAGESNM
notes: Nab2p NLS, residues 201-251; source: E. coli BL21(DE3), purified (amylose resin, cation exchange)
B9: MBP–Nab2p NLS L239W (domain or fragment, S. cerevisiae, UniProt P32505 201-251, looked up)
chain: DNSQRFTQRGGGAVGKNRRGGRGGNRGGRNNNSTRFNPWAKALGMAGESNM
notes: Nab2p NLS, residues 201-251; also called L239 to W; source: E. coli BL21(DE3), purified (amylose resin, cation exchange)
B10: MBP–Nab2p NLS R219A (domain or fragment, S. cerevisiae, UniProt P32505 201-251, looked up)
chain: DNSQRFTQRGGGAVGKNRAGGRGGNRGGRNNNSTRFNPLAKALGMAGESNM
notes: as for B8
B11: MBP–Nab2p NLS R235A, 238PL239/AA (domain or fragment, S. cerevisiae, UniProt P32505 201-251, looked up)
chain: DNSQRFTQRGGGAVGKNRRGGRGGNRGGRNNNSTAFNAAAKALGMAGESNM
notes: as for B8
B12: MBP–Nab2p NLS F236L (domain or fragment, S. cerevisiae, UniProt P32505 201-251, looked up)
chain: DNSQRFTQRGGGAVGKNRRGGRGGNRGGRNNNSTRLNPLAKALGMAGESNM
notes: as for B8
B13: MBP–Nab2p NLS K216A (domain or fragment, S. cerevisiae, UniProt P32505 201-251, looked up)
chain: DNSQRFTQRGGGAVGANRRGGRGGNRGGRNNNSTRFNPLAKALGMAGESNM
notes: as for B8
B14: MBP–Nab2p NLS L239M (domain or fragment, S. cerevisiae, UniProt P32505 201-251, looked up)
chain: DNSQRFTQRGGGAVGKNRRGGRGGNRGGRNNNSTRFNPMAKALGMAGESNM
notes: Nab2p NLS, residues 201-251; also called L239 to M; source: E. coli BL21(DE3), purified (amylose resin, cation exchange)
B15: MBP–Nab2p NLS R222A (domain or fragment, S. cerevisiae, UniProt P32505 201-251, looked up)
chain: DNSQRFTQRGGGAVGKNRRGGAGGNRGGRNNNSTRFNPLAKALGMAGESNM
notes: as for B8
B16: MBP–Nab2p NLS L239N (domain or fragment, S. cerevisiae, UniProt P32505 201-251, looked up)
chain: DNSQRFTQRGGGAVGKNRRGGRGGNRGGRNNNSTRFNPNAKALGMAGESNM
notes: Nab2p NLS, residues 201-251; also called L239 to N; source: E. coli BL21(DE3), purified (amylose resin, cation exchange)
B17: MBP–Nab2p NLS L239K (domain or fragment, S. cerevisiae, UniProt P32505 201-251, looked up)
chain: DNSQRFTQRGGGAVGKNRRGGRGGNRGGRNNNSTRFNPKAKALGMAGESNM
notes: Nab2p NLS, residues 201-251; also called L239 to K; source: E. coli BL21(DE3), purified (amylose resin, cation exchange)
B18: MBP–Nab2p NLS R235K (domain or fragment, S. cerevisiae, UniProt P32505 201-251, looked up)
chain: DNSQRFTQRGGGAVGKNRRGGRGGNRGGRNNNSTKFNPLAKALGMAGESNM
notes: Nab2p NLS, residues 201-251; also called R235 to lysine; source: E. coli BL21(DE3), purified (amylose resin, cation exchange)

Target: T1, Kap104p
Experiment: ITC; 90–350 μM MBP-NLS titrated into 9–35 μM Kap104p in the cell; 20 °C; 20 mM Tris pH 7.5, 100 mM NaCl, 2 mM β-mercaptoethanol, 10% glycerol; 35 injections of 8 μl; single-site model
Details: both partners purified

For B1, which Kd is on record?
The Kd was 32 nM.

With B2 as the binder, how does the “fold decrease in affinity against wild type” value read?
Its value is 4 fold.

With B3 as the binder, how does the Kd read?
Its Kd is 2000 nM.

B4 was tested. Which Kd did it give?
The Kd was > 10000 nM.

Which Kd does the source give for B5 here?
The Kd was 1000 nM.

With B6 as the binder, how does the Kd read?
Its Kd is 37 nM.

Does B7 bind?
Result: binds

How did the “KD,mutant/KD,wild type” value turn out when B8 was run?
The value was ~1.

Does B9 bind?
Result: binds

How did the “KD,mutant/KD,wild type” value turn out when B10 was run?
The value was ~1.

Which Kd does the source give for B11 here?
Its Kd is 544 nM.

Does B12 bind?
Result: binds

Does B13 bind?
Result: binds

Does B14 bind?
Result: binds

B15 was tested. Which “KD,mutant/KD,wild type” value did it give?
The value was ~1.

Does B16 bind?
Result: binds

Does B17 bind?
Result: binds

How did the “KD,mutant/KD,wild type” value turn out when B18 was run?
Its value is 1.
